Patent publication US20120207770A1 (NANYANG TECHNOLOGICAL UNIVERSITY, published 2012)

How the values were obtained:
[1] = biological target: T1, human integrin β5 (enriched membrane protein extract of transfected HEK293T cells) (human, UniProt P18084 24-799, limits assumed); assay: SPR, integrin over immobilized ANGPTL4, global fit to Langmuir 1:1 model
T1 construct: Membrane extract enriched on a sucrose step gradient before SPR; also called integrins B5; integrin 5
Procedure: Purifided fibrinogen-like fragment of ANGPTL4 (cANGPTL4) was immobilized onto ProteOn GLC chip by amine coupling as recommended by the manufacturer (Bio-Rad). Different concentrations of integrins were introduced into the GLC chip at a flow rate of 25 μl/min for […] with running buffer (50 mM Tris, pH8.0, 100 mMNaC1). […] Global fitting of the data to a Languir 1:1 model was used to determine the association (Kₒₙ) dissociation (Koff) and affinity constant (KD) using scrubber2 (Biologic Software Pty Ltd). […] The affinity constants of the 6 mAbs for ANGPTL4 were determined using the one shot Kinetics protocol as described by manufacturer (Bio-Rad).
Purified fibrinogen-like fragment of ANGPTL4 (cANGPTL4) was immobilized onto ProteOn GLC chip by amine coupling, as recommended by the manufacturer (Bio-Rad). Different concentrations of integrins were introduced into the GLC chip at a flow rate of 25 μl/min for […] with running buffer (50 mM Tris, pH 8.0, 100 mM NaCl). […] Global fitting of the data to a Langmuir 1:1 model was used to determine the association (kₒₙ), dissociation (koff) and affinity constant (KD) using Scrubber2 (BioLogic Software Pte Ltd). […] The affinity constants of the 6 mAbs for ANGPTL4 were determined using the One-Shot Kinetics protocol as described by manufacturer (Bio-Rad).

[2] = biological target: T2, human integrin β1 (enriched membrane protein extract of transfected HEK293T cells) (human, UniProt P05556 21-798, limits assumed); assay: SPR, integrin over immobilized ANGPTL4 on a GLC chip, global fit to Langmuir 1:1 model
T2 construct: Membrane extract enriched on a sucrose step gradient before SPR; also called integrins B1
T2 sequence (P05556 21-798 limits assumed): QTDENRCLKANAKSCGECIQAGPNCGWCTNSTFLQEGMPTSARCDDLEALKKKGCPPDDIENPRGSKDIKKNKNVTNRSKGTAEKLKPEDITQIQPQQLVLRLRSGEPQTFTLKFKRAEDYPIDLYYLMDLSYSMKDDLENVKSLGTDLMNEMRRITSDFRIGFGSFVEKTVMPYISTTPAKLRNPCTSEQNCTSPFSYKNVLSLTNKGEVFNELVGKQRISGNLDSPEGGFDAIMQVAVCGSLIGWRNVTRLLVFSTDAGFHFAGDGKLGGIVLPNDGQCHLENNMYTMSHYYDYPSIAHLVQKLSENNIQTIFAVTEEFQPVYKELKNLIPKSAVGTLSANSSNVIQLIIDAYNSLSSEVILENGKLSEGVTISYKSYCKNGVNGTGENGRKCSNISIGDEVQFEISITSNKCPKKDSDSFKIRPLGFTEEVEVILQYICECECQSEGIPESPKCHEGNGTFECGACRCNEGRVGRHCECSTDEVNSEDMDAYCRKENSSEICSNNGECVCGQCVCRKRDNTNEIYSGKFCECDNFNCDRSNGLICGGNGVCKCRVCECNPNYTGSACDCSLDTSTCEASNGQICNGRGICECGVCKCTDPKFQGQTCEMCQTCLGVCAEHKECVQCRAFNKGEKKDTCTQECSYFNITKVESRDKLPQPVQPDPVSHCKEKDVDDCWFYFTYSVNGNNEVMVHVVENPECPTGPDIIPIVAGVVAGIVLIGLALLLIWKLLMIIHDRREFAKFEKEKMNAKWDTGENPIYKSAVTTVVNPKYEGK
Procedure: Immunoprecipitates were probed with anti-Src for normalization. Activated Src, Na⁺/H⁻ exchanger 1 and catalase were assessed using cognate antibodies. Representative pictures from three experiments. (h) Intracellular ROS of A-5RT3CTRL and A-5RT3ANGPTL4 evaluated by 5-(and 6-)-chloromethyl-2′,7′-dichlorodihydro-fluorescein diacetate acetyl ester. Data are normalized to total protein content. (i) Activities of caspases in A-5RT3ANGPTL4 after 2 h suspension. Values (mean±S.D.) represent a fold change above A-5RT3CTRL (n=3). *:p<0.05, **:p<0.01.
Purifided fibrinogen-like fragment of ANGPTL4 (cANGPTL4) was immobilized onto ProteOn GLC chip by amine coupling as recommended by the manufacturer (Bio-Rad). Different concentrations of integrins were introduced into the GLC chip at a flow rate of 25 μl/min for […] with running buffer (50 mM Tris, pH8.0, 100 mMNaC1). […] The affinity constants of the 6 mAbs for ANGPTL4 were determined using the one shot Kinetics protocol as described by manufacturer (Bio-Rad).
Purified fibrinogen-like fragment of ANGPTL4 (cANGPTL4) was immobilized onto ProteOn GLC chip by amine coupling, as recommended by the manufacturer (Bio-Rad). […] The affinity constants of the 6 mAbs for ANGPTL4 were determined using the One-Shot Kinetics protocol as described by manufacturer (Bio-Rad).

T1 sequence (P18084 24-799 limits assumed): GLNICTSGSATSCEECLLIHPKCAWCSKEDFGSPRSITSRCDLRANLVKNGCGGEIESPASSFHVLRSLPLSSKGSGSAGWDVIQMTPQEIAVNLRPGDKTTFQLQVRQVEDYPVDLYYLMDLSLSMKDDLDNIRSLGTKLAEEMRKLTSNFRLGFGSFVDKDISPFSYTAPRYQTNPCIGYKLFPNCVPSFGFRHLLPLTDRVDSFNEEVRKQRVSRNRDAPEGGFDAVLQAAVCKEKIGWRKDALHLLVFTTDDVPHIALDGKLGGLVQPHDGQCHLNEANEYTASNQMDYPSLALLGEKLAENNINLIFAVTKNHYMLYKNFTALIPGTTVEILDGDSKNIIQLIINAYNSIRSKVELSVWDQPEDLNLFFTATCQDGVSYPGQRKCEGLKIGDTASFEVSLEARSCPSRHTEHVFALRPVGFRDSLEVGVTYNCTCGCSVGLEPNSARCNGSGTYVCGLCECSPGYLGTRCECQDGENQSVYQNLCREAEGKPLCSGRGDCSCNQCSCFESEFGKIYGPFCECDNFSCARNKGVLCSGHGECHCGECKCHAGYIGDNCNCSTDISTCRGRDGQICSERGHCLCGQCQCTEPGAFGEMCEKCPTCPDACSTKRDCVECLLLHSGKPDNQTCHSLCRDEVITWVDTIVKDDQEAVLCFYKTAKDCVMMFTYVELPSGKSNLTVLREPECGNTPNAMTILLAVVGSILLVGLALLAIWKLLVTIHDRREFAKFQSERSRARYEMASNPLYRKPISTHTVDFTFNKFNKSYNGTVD

- Kd [1]: ~0.1 µM
- Kd [2]: ~0.1 µM
B1: recombinant C-terminal fibrinogen-like fragment of human ANGPTL4 (cANGPTL4, a.a. 186-406) (ligand, UniProt Q9BY76 186-406, looked up)
chain: RDCQELFQVGERQSGLFEIQPQGSPPFLVNCKMTSDGGWTVIQRRHDGSVDFNRPWEAYKAGFGDPHGEFWLGLEKVHSITGDRNSRLAVQLRDWDGNAELLQFSVHLGGEDTAYSLQLTAPVAGQLGATTVPPSGLSVPFSTWDQDHDLRRDKNCAKSLSGGWWFGTCSHSNLNGQYFRSIPQQRQKLKKGIFWKTWRGRYYPLQATTMLIQPMAAEAAS
notes: range 186-406; also called immobilized-ANGPTL4; fibrinogen-like fragment of ANGPTL4; not shown: N-terminal histidine tag
